Results taken from article PMC12407373, “Kindlin Regulates Mechanosensitive Activation and Adhesion Assembly of Integrin beta6” (Advanced Science, 2025).
Where no end group is shown, it is not given here.

T1: full-length mouse kindlin2 (mouse, UniProt Q8CIB5 1-680)
T1 construct: full-length mouse kindlin2, cloned into pET28a with 10xHis-SUMO tag and HRV-3C site at the N-terminal; also called kindlin2 protein; source: Escherichia coli Rosetta(DE3), purified (IMAC, tag cleavage by HRV 3C, SEC); not shown: 10xHis, N-terminal, cleaved; SUMO, N-terminal, cleaved
T1 sequence (looked up): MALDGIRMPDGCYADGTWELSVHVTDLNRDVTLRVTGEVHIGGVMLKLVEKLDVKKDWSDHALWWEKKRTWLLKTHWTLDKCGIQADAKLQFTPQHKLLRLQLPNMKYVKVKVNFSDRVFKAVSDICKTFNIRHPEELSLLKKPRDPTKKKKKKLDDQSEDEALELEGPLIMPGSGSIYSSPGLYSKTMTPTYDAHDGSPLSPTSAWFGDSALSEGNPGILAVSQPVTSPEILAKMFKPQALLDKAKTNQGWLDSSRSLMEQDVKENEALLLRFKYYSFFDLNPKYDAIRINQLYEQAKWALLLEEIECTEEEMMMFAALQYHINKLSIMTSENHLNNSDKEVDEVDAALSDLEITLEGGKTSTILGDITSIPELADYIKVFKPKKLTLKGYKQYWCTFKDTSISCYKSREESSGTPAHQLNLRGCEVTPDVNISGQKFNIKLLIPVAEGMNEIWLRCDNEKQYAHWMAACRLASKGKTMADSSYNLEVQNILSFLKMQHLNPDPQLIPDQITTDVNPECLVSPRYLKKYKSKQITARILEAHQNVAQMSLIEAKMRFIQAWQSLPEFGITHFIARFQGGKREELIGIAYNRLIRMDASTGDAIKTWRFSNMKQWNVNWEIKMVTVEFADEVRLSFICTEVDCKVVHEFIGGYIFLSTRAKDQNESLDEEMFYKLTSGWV


Target: T1, full-length mouse kindlin2
Experiment: MST; Monolith NT.115; FITC-labeled tail peptide constant at 10 µM, kindlin2 titrated 42.5 to 0.0013 µM; 20 mM Tris pH 7.5, 200 mM sodium chloride, 1 mM TCEP, 5% glycerol; 10-20% LED power; Kd model
Conditions: both partners purified

| Binder | Kd [µM] |
| --- | --- |
| FITC-labeled cytoplasmic tail of wildtype integrin β6 (peptide, UniProt P18564 731-788, looked up, also: FITC label, position not given here, cytoplasmic tail of integrin β6; also called cytoplasmic tail of integrin β6; integrin β tail peptide; source: synthetic peptide, synthesized by Sangon Biotech) peptide: KLLVSFHDRKEVAKFEAERSKAKWQTGTNPLYRGSTSTFKNVTYKHREKQKVDLSTDC | 26.6 |
| KLLMIIHDRREFAKFEKEKMNAKWDTGENPIYKSAVTTVVNPKYEGK (peptide, UniProt P05556 752-798, looked up, also: FITC label, position not given here, cytoplasmic tail of integrin β1; also called cytoplasmic tail of integrin β1; integrin β tail peptide; source: synthetic peptide, synthesized by Sangon Biotech) [FITC-labeled cytoplasmic tail of wildtype integrin β1] | 0.42 |
